This passage reports kcat/KM of dephosphorylation of the peptide by purified PTP1B results from paper PMC11060668.

The target in the test is T1, PTP1B (residue 1-321) (UniProt P18031).
T1 sequence: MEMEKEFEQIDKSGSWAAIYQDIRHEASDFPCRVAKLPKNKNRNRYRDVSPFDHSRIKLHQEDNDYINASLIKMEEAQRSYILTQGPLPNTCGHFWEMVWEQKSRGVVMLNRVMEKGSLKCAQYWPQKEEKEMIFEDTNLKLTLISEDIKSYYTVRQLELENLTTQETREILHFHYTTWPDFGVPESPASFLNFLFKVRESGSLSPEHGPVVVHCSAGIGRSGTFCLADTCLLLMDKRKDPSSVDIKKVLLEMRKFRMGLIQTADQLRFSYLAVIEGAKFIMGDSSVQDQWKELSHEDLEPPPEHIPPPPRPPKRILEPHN

Where no end group is shown, it is not given here. [ ]: non-standard residue; d: D form. pY = N[C@@H](Cc1ccc(OP(=O)(O)O)cc1)C(=O)O

Regarding ELD[pY][pY]DSHN [alpha-actinin4 derived di-phospho-tyrosine peptide ELDpYpYDSHN], the kcat/KM of dephosphorylation of the peptide by purified PTP1B was 2.17e+06 M^−1 S^−1.
